Data from paper PMC7078309, “New Therapeutic Candidates for the Treatment of Malassezia pachydermatis -Associated Infections” (Scientific Reports, 2020).

Substrate: O=C(O)CCC(=O)C(=O)O
Test: NAD/NADH quantification kit, Lineweaver-Burk
Format: biochemical, Malassezia pachydermatis
Conditions: without inhibitor; reverse reaction; 2-OG 15-30 mM; NADH
Source text: NAD/NADH quantification kit, Lineweaver-Burk on MpSDH

B1: MpSDH (Malassezia pachydermatis) (protein)
chain: MTGTQALWLRCETKPAEHRSALTPTTAKKLINAGFDITVERDPNRIFDDEEFEKVGCHMAEYHSWPKAPKTTPIIGLKELDTPGPDLEHTHIQFAHCYKHQEGWVDVLARFKRGGGKLYDLEFLEDANGRRVAAFGWHAGFAGAALGLLALAEQVEGKVLGAQTKYPNEEALMEKTREAVRVIRKHRPDGRVTSLIIGALGRCGRGAIDCLEKSGLQSDEIVRWDIQETSAKSGPYQEIIDSDLFVNCIYLSKKIPPFVNKESLQAVGDKRRLGMIVDVSCDTTNPNNPIPVYSINTTFDKPTVAVDGFDKLEVISIDHLPTLLPREASEAFSNDLLPSLLQLPLVTGVAGEEALQHVNEEGKGAVWTRAEALFRKHLAEAEANGA
notes: synthetic gene, C-terminal 6xHN tag (pET6xHN-C), expressed in E. coli BL21, Ni-IMAC, 43 kDa band on SDS-PAGE
Km: 0.25 ± 7.1e-02 mM
